Laboratory results published in the supplement of paper PMC9170038.

Test system: MS2 coat protein
Experiment: apparent KD of MS2 coat protein; designed switch direction (-1 OFF switch, 1 ON switch): -1; higher = weaker reporter binding
Procedure, shortened: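 The apparent KD reported per design is the median over clusters of curve fits to normalised cluster fluorescence. The RNA switches were transcribed on Illumina chips by stalled E. coli RNA polymerase. SNAP-549-labelled MS2 coat protein was titrated from 0.7 or 1.5 nM, doubling up to 3 µM, in Tris-HCl pH 7.5 buffer containing KCl, MgCl2, BSA, DTT, tRNA and Tween-20, with no input, 200 uM small-molecule ligand, or an oligonucleotide input.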

[1] = input ligand: microRNA oligo, concentration not stated
[2] = Eterna round: R95, input ligand: microRNA oligo, concentration not stated
[3] = Eterna round: R95, input ligand: FMN 200 uM
[4] = Eterna round: R95, input ligand: none

UUAAAUCAUGUAGGAUAUGCGUGGCGAAGCUAUGCAGAAGGACAUGAGGAUCACCCAUGUGCUUCCGUCUGCGUACAGAUGGAA [JL Eng1 1.08 mod 3] (Eterna round: R96, puzzle: Exclusion NG 1)
apparent KD of MS2 coat protein (input ligand: FMN 200 uM): 81.4 nM
apparent KD of MS2 coat protein [1]: 80.6 nM
apparent KD of MS2 coat protein (input ligand: none): 109 nM

CUUUUGUGAGGAUAUCAGGUGUGCUAGCGUACUGGUACAUCUGAGAAGGCACAUGAGGAUCACCCAUGUUCCUC [JL-ex4-3.17 Brourd mod] (puzzle: Exclusion 4)
apparent KD of MS2 coat protein [2]: 39.1 nM

CCAAGCUUUUUCAUUAACAACAUGAGGAUCACCCAUGUGUAAGCUAUUAGGUUUGGGCUCUUUAGUGCUCGUCUUAU [JR_STOV1_Sub041] (Eterna round: R97, puzzle: Sensor, turn-off variant 1)
apparent KD of MS2 coat protein (input ligand: FMN 200 uM): 14.5 nM
apparent KD of MS2 coat protein (input ligand: none): 13.5 nM

CUUGUGUGAGGAUAUCAGUAGUAGUACGAUAGUAUUACUGCUGAGAAGGCACAUGAGGAUCACCCAUGUUCUUC [Exclusion 4 - Mod Omei Ex4 344 mod v.4] (puzzle: Exclusion 4)
apparent KD of MS2 coat protein [2]: 23.6 nM

UUCCCACAUGAGGAUCACCCAUGUGAGGAUAUGGAGCGCGACCGCGCGGUCGCGUACACCAGAAGGCGCAUGAU [1st #80] (Eterna round: R97, puzzle: Exclusion 1)
apparent KD of MS2 coat protein (input ligand: FMN 200 uM): 21 nM
apparent KD of MS2 coat protein (input ligand: none): 16.2 nM

GUAAUGUGAGGAUAUGGUAAAGAUAAGAUGAUGAAAGAACUCCAGAAGGCACAUGAGGAUCACCCAUGUAGAUG [Mat - Exclusion 4 - Mod of JL - D27] (puzzle: Exclusion 4)
apparent KD of MS2 coat protein [2]: 26.1 nM

UUGAAUUAACAGGAUAUGGGAGUCGAUAGACACCCAGAAGGGUUAACAUGAGGAUCACCCAUGUGUCCUAUCAA [Mod of Eli 23 - Jieux - Exclusion 6] (Eterna round: R97, puzzle: Exclusion 6)
apparent KD of MS2 coat protein (input ligand: FMN 200 uM): 94.8 nM
apparent KD of MS2 coat protein (input ligand: none): 36.5 nM

AUAUUAACAUAGGAUAUCGAAUAAAUUAUUUAACGAGAAGGAUGAACAUGAGGAUCACCCAUGUGGUAUCAUGG [Mat - Exclusion 6 - JL Mod - D29] (puzzle: Exclusion 6)
apparent KD of MS2 coat protein [3]: 153 nM
apparent KD of MS2 coat protein [2]: 236 nM
apparent KD of MS2 coat protein [4]: 411 nM

GAGUGACAUGAGGAUCACCCAUGUGAGGAUAUCGGACGGACCAAAUUAACAACCACCGCGAGAAGGCACAUCGG [Exclusion 1 V21] (puzzle: Exclusion 1)
apparent KD of MS2 coat protein [3]: 58.4 nM
apparent KD of MS2 coat protein [2]: 98.9 nM
apparent KD of MS2 coat protein [4]: 107 nM

GUUGUUUAUGUAGGAUAUGCCUGGCGUGCCUUUGCAGAAGGACAUGAGGAUCACCCAUGUAUUGCGGUCUGCGUUCAGAUCGCA [salish99_ExNG1_r4_039] (Eterna round: R96, puzzle: Exclusion NG 1)
apparent KD of MS2 coat protein (input ligand: FMN 200 uM): 59.5 nM
apparent KD of MS2 coat protein [1]: 26 nM
apparent KD of MS2 coat protein (input ligand: none): 39 nM

CCGAGGAAGCGGUCCUAUGACAUGAGGAUCACCCAUGUACCUCGCUACGAGCUUUUUGCUCGUCUUAUAAUUCUCGG [Mat - Sensor v3 - turn-off var 1 - JL Mod - D28] (puzzle: Sensor v3, turn-off variant 1)
apparent KD of MS2 coat protein [3]: 24.2 nM
apparent KD of MS2 coat protein [2]: 65.5 nM

GACACUCAUGUAAGUAUUUACAUGAGGAUCACCCAUGUACCACUAGAAGACUAGGGAACGAAACGAGCUGGCUGUCA [Eternabot (Original) Solution 6] (Eterna round: R97, puzzle: Sensor, turn-off variant 1)
apparent KD of MS2 coat protein (input ligand: FMN 200 uM): 1290 nM
apparent KD of MS2 coat protein (input ligand: none): 567 nM

CUUAGACAUGAGGAUCACCCAUGUGAGGAUAUGAUGCGAUCGUGCUGACAUGAUCGCAUCAGAAGGCACAAAUG [Mat - Mod of JL D65] (puzzle: Exclusion 1)
apparent KD of MS2 coat protein [2]: 146 nM

UUCAUGUGAGGAUAUGUGAUCUGCUUUCUGUUUAGAUGAUCACAGAAGGCACAUGAGGAUCACCCAUGUAGAUC [Ex4 - 3 - 30] (puzzle: Exclusion 4)
apparent KD of MS2 coat protein [2]: 60.5 nM

GACCUCACUGUAGGAUAUGACCGAUCCAGAGGAUCAGAAGGACAUGAGGAUCACCCAUGUGCGUGGAGGGAACGUAAGAAACAA [Eternabot solution 2] (Eterna round: R96, puzzle: Exclusion NG 1)
apparent KD of MS2 coat protein (input ligand: FMN 200 uM): 323 nM
apparent KD of MS2 coat protein [1]: 29.4 nM
apparent KD of MS2 coat protein (input ligand: none): 52.9 nM

AGAGUGCUGCGAGGAUAUACAUGAGGAUCACCCAUGUAAAAGUGUGAGGCUUUGCCUCACACGAAGUAGAAGGCGCAGUACUCA [Mat - Exclusion NG 2 - Mod of JL - D33] (Eterna round: R96, puzzle: Exclusion NG 2)
apparent KD of MS2 coat protein (input ligand: FMN 200 uM): 13 nM
apparent KD of MS2 coat protein [1]: 11.3 nM
apparent KD of MS2 coat protein (input ligand: none): 24.3 nM

AGAAAGGAAGGAUAUACAAGAAAGCUGGGCAACGUCUCAUAACAUGAGGAUCACCCAUGUAGAAGGUCCAGGAA [Tiusredi] (puzzle: Exclusion 2)
apparent KD of MS2 coat protein [3]: 35.7 nM
apparent KD of MS2 coat protein [2]: 21.2 nM
apparent KD of MS2 coat protein [4]: 19.3 nM

CUCUUGUUAGGAUAUCAAACCAGCGGCGGAACCGCUGGUAGUGAGAAGGGACAUGAGGAUCACCCAUGUAAGAA [Bige] (puzzle: Exclusion 4)
apparent KD of MS2 coat protein [3]: 108 nM
apparent KD of MS2 coat protein [2]: 51.1 nM
apparent KD of MS2 coat protein [4]: 61.3 nM

UAUGGUUAAGUCAGGAUAUGCUCAUAGAAGUCUAUGCAGAAGGGACAUGAGGAUCACCCAUGUAUGGUCGUGUU [Ex4 #65] (Eterna round: R97, puzzle: Brourd's mod of Exclusion 4)
apparent KD of MS2 coat protein (input ligand: FMN 200 uM): 142 nM
apparent KD of MS2 coat protein (input ligand: none): 70.9 nM

CCGGAAAGGAAGGAUAUGCUAGACGAGAGUCUAGCAGAAGGUCCUACAUGAGGAUCACCCAUGUGGUCCUCCGG [Mat - Exclusion 6 - Eli Mod - D34] (Eterna round: R97, puzzle: Exclusion 6)
apparent KD of MS2 coat protein (input ligand: FMN 200 uM): 252 nM
apparent KD of MS2 coat protein (input ligand: none): 1270 nM

GAUUAACAUGAGGAUCACCCAUGUGAGGAUAUGAACUUGCCCACUUACCAGAUAAAGUUUAGAAGGCGCAUUCU [1986#35] (Eterna round: R97, puzzle: Exclusion 1)
apparent KD of MS2 coat protein (input ligand: FMN 200 uM): 47.3 nM
apparent KD of MS2 coat protein (input ligand: none): 30.4 nM

UAGAAGGUAGGAUAUACGAAUAAAUAGGGUAGUAAUAAUACACAUGAGGAUCACCCAUGUAGAAGGACCAAGAU [Mat - Exclusion 2 - Mod of my Tesla design - D31] (puzzle: Exclusion 2)
apparent KD of MS2 coat protein [3]: 44.2 nM
apparent KD of MS2 coat protein [2]: 20.1 nM
apparent KD of MS2 coat protein [4]: 23 nM

AGGUGCUUCUGGAGACAUGAGGAUCACCCAUGUCGAGUUAGCGAGGAUAUCGGUAAGGCAUGUGAUGAGAAGGCGCAAACCGAU [Ex NG3 #50] (Eterna round: R96, puzzle: Exclusion NG 3)
apparent KD of MS2 coat protein (input ligand: FMN 200 uM): 22.8 nM
apparent KD of MS2 coat protein [1]: 12.7 nM
apparent KD of MS2 coat protein (input ligand: none): 24.3 nM

AGUAGUUACGUAGGAUAUGAGGAUCACCCAUAGAAGGAUAUCGAAAGAGAAGGUCUGAGGAUUACCCAGAAGGACGUGACUACA [pwkr exNG2 2xF5 2xFMN.9] (Eterna round: R96, puzzle: Exclusion NG 2)
apparent KD of MS2 coat protein (input ligand: FMN 200 uM): 334 nM
apparent KD of MS2 coat protein [1]: 113 nM
apparent KD of MS2 coat protein (input ligand: none): 138 nM

GCAGCAACUCUAAUCAAUCAAACAUGAGGAUCACCCAUGUCUCAGGAUAUGGUCUGGAUUACAGGCCAGAAGGGAGAAAGCUGC [Eli exng3 - 045] (Eterna round: R96, puzzle: Exclusion NG 3)
apparent KD of MS2 coat protein (input ligand: FMN 200 uM): 14.3 nM
apparent KD of MS2 coat protein [1]: 11.1 nM
apparent KD of MS2 coat protein (input ligand: none): 16.1 nM

AGCCAAGCAGGAUAUGCACGUAAUAACAUGAGGAUCACCCAUGUGACCGAUUUAUAUUCUGCAGAAGGGCUUGGAA [LRO-Excl5-14-mod of Erxesoan mod by Eli Fisker] (Eterna round: R97, puzzle: Exclusion 5)
apparent KD of MS2 coat protein (input ligand: FMN 200 uM): 143 nM
apparent KD of MS2 coat protein (input ligand: none): 29.7 nM

CCUCAACAGUAGGAUAUCAUCAAACUAUUGUGAUGAGAAGGACUGACAUGAGGAUCACCCAUGUUAACGUGAUA [Exclusion 6 - 6:a] (puzzle: Exclusion 6)
apparent KD of MS2 coat protein [3]: 38.9 nM
apparent KD of MS2 coat protein [2]: 38.4 nM
apparent KD of MS2 coat protein [4]: 44.9 nM

UAGUAGCAAGGAUAUACAGAGGAGAGGAUUGCAAGAGGUGGACAUGAGGAUCACCCAUGUAGAAGGUGCAGAGA [JR_Exclu2_Sub021] (puzzle: Exclusion 2)
apparent KD of MS2 coat protein [3]: 310 nM
apparent KD of MS2 coat protein [2]: 275 nM
apparent KD of MS2 coat protein [4]: 362 nM

GUUAUUUCAGGAUAUACAUGAGGAUCACCCAUGUAAGCAAGGUGCCUGCAUCCCGACUGUAGAAGGGAAAUGAG [Eternabot (L2) Solution 61] (Eterna round: R97, puzzle: Exclusion 3)
apparent KD of MS2 coat protein (input ligand: FMN 200 uM): 29.9 nM
apparent KD of MS2 coat protein (input ligand: none): 28.5 nM

GGUCUUCAAGUCAGGAUAUCGUCUAAUAGAUCUAACGAGAAGGGACAUGAGGAUCACCCAUGUCGUCUCAUCAG [Ex4 #19] (Eterna round: R97, puzzle: Brourd's mod of Exclusion 4)
apparent KD of MS2 coat protein (input ligand: FMN 200 uM): 34.5 nM
apparent KD of MS2 coat protein (input ligand: none): 16.5 nM

UUAUUGUGUGUAGGAUAUGCGUGUUAUUAUUAUGCAGAAGGACAUGAGGAUCACCCAUGUGUAUUAUUAUUAUAUAUUAUAUAU [Title] (Eterna round: R96, puzzle: Exclusion NG 1)
apparent KD of MS2 coat protein (input ligand: FMN 200 uM): 45.3 nM
apparent KD of MS2 coat protein [1]: 27.2 nM
apparent KD of MS2 coat protein (input ligand: none): 27.7 nM

UUUUGGCAUGUAGGAUAUGGGUCCGAUUGGGAUUUAGAAGGACAUGAGGAUCACCCAUGUGCCCUUACUUGGUCUUUUUUUUUU [EXclNG1-LROPPY19] (Eterna round: R96, puzzle: Exclusion NG 1)
apparent KD of MS2 coat protein (input ligand: FMN 200 uM): 298 nM
apparent KD of MS2 coat protein [1]: 128 nM
apparent KD of MS2 coat protein (input ligand: none): 228 nM

ACAUGAGGAUCACCCAUGUAAACAUAAUGGCUCAUGUAGAGUCAGGAUAUGCGUGGCGAACAACCGCAGAAGGGACAAGACUGG [Deportation 27 - Jieux - Exclusion NG 3] (Eterna round: R96, puzzle: Exclusion NG 3)
apparent KD of MS2 coat protein (input ligand: FMN 200 uM): 25.7 nM
apparent KD of MS2 coat protein [1]: 20.4 nM
apparent KD of MS2 coat protein (input ligand: none): 29 nM
